Laboratory results from PMC11331121.

What was measured:
Assay in all cases: SPR
H4K8ac peptide = biological target: H4K8ac peptide
H4K5ac peptide = biological target: H4K5ac peptide
H3K9ac peptide = biological target: H3K9ac peptide
H3K14ac peptide = biological target: H3K14ac peptide

Kd (H4K8ac peptide): 654 µM | Kd (H4K5ac peptide): 925 µM | Kd (H3K9ac peptide): 823 µM | Kd (H3K14ac peptide): 339 µM
B1: triple Tudor domains (3TD) of Drosophila Eggless/SetDB1, wild type (domain or fragment)
chain: SDYVHEVPPPGEIVRPPIQLGETYYAVKNKAIASWVSIKVIEFTESTAINGNTMKSYKIRYLNTPYQMIKTVTAKHIAYFEPPPVRLTIGTRVIAYFDGTTLSRGKDKGVVQSAFYPGIIAEPLKQANRYRYLIFYDDGYTQYVPHRDVRLVCQASEKVWEDVHAASRDFIQKYVEKYSVDRPMVQCTRGQSMTTESNGTWLYARVIDIDCSLVLMQFEGDKNHTEWIYRGSLRLGPVFRETQNNMNSSSAQQLRVP
